Measurements: patent US20210338779A1, “THERAPEUTIC USE OF GLUCAGON AND COMBINATION INCLUDING THE SAME” (HANMI PHARM. CO., LTD, priority 2018, published 2021)
Positions of bridges follow the written chain, without caps; N, C: chain ends. Non-standard residues stand in square brackets, D forms with d. No end group written: not given here. Aib = CC(C)(N)C(=O)O

Tested on: not given
Experiment: not given
Settings: in vivo; cited from earlier work

Row | Molecule | side-effects
1 | Contrave | cardiovascular side-effects

Same assay, conditions: reported; cited from earlier work

Row | Molecule | side-effects
2 | Cc1c(C(=O)NN2CCCCC2)nn(-c2ccc(Cl)cc2Cl)c1-c1ccc(Cl)cc1 [Rimonabant] | side-effect of central nervous system disorder
3 | CC(C)CC(N(C)C)C1(c2ccc(Cl)cc2)CCC1 (stereo not drawn) [Sibutramine] | cardiovascular side-effects

Same assay, conditions: when taken for one year; cited from earlier work

Row | Molecule | weight loss
4 | CCCCCCCCCCC[C@@H](C[C@@H]1OC(=O)[C@H]1CCCCCC)OC(=O)[C@H](CC(C)C)NC=O [Orlistat] | about 4 kg

Biological target: human glucagon receptor (human, UniProt P47871 26-477)
Sequence (P47871 26-477): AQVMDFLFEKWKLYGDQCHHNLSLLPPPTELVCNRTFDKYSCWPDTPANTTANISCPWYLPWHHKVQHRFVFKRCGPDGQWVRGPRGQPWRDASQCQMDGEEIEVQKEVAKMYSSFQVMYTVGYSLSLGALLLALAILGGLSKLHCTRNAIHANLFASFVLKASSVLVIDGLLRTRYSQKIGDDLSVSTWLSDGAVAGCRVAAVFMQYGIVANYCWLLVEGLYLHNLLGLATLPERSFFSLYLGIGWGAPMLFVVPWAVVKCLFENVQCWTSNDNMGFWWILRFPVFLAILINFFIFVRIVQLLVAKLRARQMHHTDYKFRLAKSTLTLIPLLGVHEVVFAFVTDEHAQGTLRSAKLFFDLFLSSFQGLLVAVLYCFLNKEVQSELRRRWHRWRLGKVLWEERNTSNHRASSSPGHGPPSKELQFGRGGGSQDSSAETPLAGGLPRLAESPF
Experiment: cell-based or functional assay
Settings: not given

Row | Molecule | in vitro activity (%, relative to SEQ ID NO: 1); cAMP assay, from EC50 [%]
5 | Y[Aib]QGTFTSDYSKYLDEKRAKEFVQWLMNTC (lactam 16-20) [glucagon derivative of SEQ ID NO: 12] | 56.3
6 | Y[Aib]QGTFCSDYSKYLDERRAKEFVQWLMNT (lactam 16-20) [glucagon derivative of SEQ ID NO: 38] | 167
7 | W[Aib]QGTFTSDYSKYCDERRAKEFVQWLMNT (lactam 16-20) [glucagon derivative of SEQ ID NO: 34] | 0.2
8 | Y[Aib]QGTFTSDYSKYLDSCDAQDFVQWLINT [glucagon derivative of SEQ ID NO: 8] | < 0.1
9 | W[Aib]QGTFVSDYSKYLDECRAKDFVQWLMNT (lactam 16-20) [glucagon derivative of SEQ ID NO: 28] | < 0.1
10 | Y[Aib]QGTFTSDYSKYLDCKRAKEFVQWLMNT (lactam 17-21) [glucagon derivative of SEQ ID NO: 31] | 6.3
11 | Y[Aib]QGTFTSDYSKYLDCKRAKEFVQWLMNT [glucagon derivative of SEQ ID NO: 14] | 18.1
12 | W[Aib]QGTFTSDYSKCLDERRAKDFVQWLMNT (lactam 16-20) [glucagon derivative of SEQ ID NO: 30] | 0.3
13 | Y[Aib]QGTFTSDYSKYLDSCDAQDFVVWLINT [glucagon derivative of SEQ ID NO: 9] | < 0.1
14 | SQGTFTSDYSKYLDECRAKEFVQWLMNT (lactam 15-19) [glucagon derivative of SEQ ID NO: 32] | 0.7
15 | Y[Aib]QGTFTSDYSKYLDEKCAKEFVQWLMNT (lactam 16-20) [glucagon derivative of SEQ ID NO: 21] | 57.8
16 | HSQGTFTSDYSKYLDCERAQDFVQWLMNT [glucagon derivative of SEQ ID NO: 3] | 6.1
17 | Y[Aib]QGTFTSDYSKYCDERRAKEFVQWLMNT (lactam 16-20) [glucagon derivative of SEQ ID NO: 35] | 17.7
18 | Y[Aib]QGTFCSDYSKYLDSRRAQDFVQWLMNT [glucagon derivative of SEQ ID NO: 42] | 37.9
19 | Y[Aib]QGTFTSDYSKYLDSCDADDFVVWLINT [glucagon derivative of SEQ ID NO: 10] | < 0.1
20 | Y[Aib]QGTFTSDYSKYLDSRRACDFRLWLMNT [glucagon derivative of SEQ ID NO: 18] | < 0.1
21 | Y[Aib]QGTFTSDYSKYLDCVRAQDFVQWLMRT [glucagon derivative of SEQ ID NO: 17] | 23.2
22 | Y[Aib]QGTFTSDYSKYCDEKRAKEFVQWLMNT (lactam 16-20) [glucagon derivative of SEQ ID NO: 23] | 76.8
23 | Y[Aib]QGTFTSDYSKYLCEKRAQDFVVWLMNT [glucagon derivative of SEQ ID NO: 15] | 1.1
24 | Y[Aib]QGTFTSDYSKCLDERRAKDFVQWLMNT (lactam 16-20) [glucagon derivative of SEQ ID NO: 29] | 61.3
25 | YSQGTFTSDYSKYLDSCEADDFVQWLMNT [glucagon derivative of SEQ ID NO: 7] | < 0.1

Row | Molecule | in vitro activity (%, relative to SEQ ID NO: 1); cAMP assay, from EC50 [%]
26 | HSQGTFTSDYSKYLDSCDAQDFVQWLMNT [glucagon derivative of SEQ ID NO: 4] | < 0.1
27 | Y[Aib]QGTFTSDYSKCLDEKRAKEFVQWLMNT (lactam 16-20) [glucagon derivative of SEQ ID NO: 24] | 58
28 | W[Aib]QGTFTSDYSKYLDECRAKDFVQWLMNT (lactam 16-20) [glucagon derivative of SEQ ID NO: 26] | 1
29 | Y[Aib]QGTFVSDYSKYLDERRAKDFVQWLMNTC (lactam 16-20) [glucagon derivative of SEQ ID NO: 40] | 40.8
30 | Y[Aib]QGTFVSDYSKYLDECRAKDFVQWLMNT (lactam 16-20) [glucagon derivative of SEQ ID NO: 27] | 93.6
31 | HSQGTFTSDYSKYLDCDRAQDFVQWLMNT [glucagon derivative of SEQ ID NO: 2] | 0.6
32 | Y[Aib]QGTFTSDYSKYLDEKRCKEFVQWLMNT (lactam 16-20) [glucagon derivative of SEQ ID NO: 22] | 148
33 | Y[Aib]QGTFTSDYSKYLDEKRAKCFVQWLMNT (lactam 16-20) [glucagon derivative of SEQ ID NO: 25] | 46.9
34 | HSQGTFTSDYSKYLDSCEAQDFVQWLMNT [glucagon derivative of SEQ ID NO: 5] | 0.3
35 | Y[Aib]QGTFTSDYSKYLDCRRAQVFVQWLMRT [glucagon derivative of SEQ ID NO: 16] | 4.2
36 | YXQGTFTSDYSKYLDSRRAQDFVQWLMNT (X at position 2 = aminoisobutyric acid (Aib)) [glucagon derivative of SEQ ID NO: 33] | 108
37 | Y[Aib]QGTFTSDCSKYLDSRRAQDFVQWLMNT [glucagon derivative of SEQ ID NO: 43] | 1.6
38 | HSQGTFTSDYSKYLDSCEADDFVQWLMNT [glucagon derivative of SEQ ID NO: 6] | < 0.1
39 | YXQGTFTSDYSKYLDSRRAQDFVQWLMNTC (X at position 2 = aminoisobutyric acid (Aib)) [glucagon derivative of SEQ ID NO: 44] | 75.4
40 | Y[Aib]QGTFVSDCSKYLDERRAKDFVQWLMNT (lactam 16-20) [glucagon derivative of SEQ ID NO: 39] | 3.7
41 | Y[Aib]QGTFTSDYSKYLDECRAKEFVQWLMNT (lactam 16-20) [glucagon derivative of SEQ ID NO: 20] | 300
42 | Y[Aib]QGTFTSDYSKYLDEKCAKEFVQWLMNT [glucagon derivative of SEQ ID NO: 11] | 4.6
43 | Y[Aib]QGTFTSDCSKYLDERRAKEFVQWLMNT (lactam 16-20) [glucagon derivative of SEQ ID NO: 36] | 9.9
44 | Y[Aib]QGTFCSDYSKYLDERRAKDFVQWLMNT (lactam 16-20) [glucagon derivative of SEQ ID NO: 41] | 45.2
45 | Y[Aib]QGTFTSDYSKYLCEKRAKEFVQWLMNT (lactam 16-20) [glucagon derivative of SEQ ID NO: 19] | 12.1
